For 1 protein, Km results are on record in PMC12421882, “ThIPK1 regulates lignocellulolytic enzyme expression during wood degradation in white-rot fungi” (mBio, 2025).

Substrate in the series: O=P(O)(O)O[C@@H]1[C@@H](OP(=O)(O)O)[C@H](OP(=O)(O)O)[C@H](O)[C@H](OP(=O)(O)O)[C@H]1OP(=O)(O)O
The experiment in a line: Kinase-Glo Max luminescent kinase assay; Michaelis-Menten nonlinear regression. Type of series: biochemical, Trametes hirsuta. As to conditions: 300 µM ATP, 5 mM MgCl2, 50 mM NaCl, 50 mM Tris pH 7.5, 28°C. (Kinase-Glo measures the ATP left after a reaction by luminescence.)

B1: ThIPK1 (Trametes hirsuta) (protein)
chain: MENDAPIIGDTSPQDWKYISEGGSTIVFSYVGPPHPSFDGTALRLRKGPTPAHEDPEKYEKPSLAPAEPSQEPEASAAGGADDEEPDDPTVVFQRTVIERLVPTAHLPRLQPVRVARAWLAQLAARTEALRPAERRARDAIDLGRRKAVLATDLVGGEGWAVEIKPKWGFLPQPAYLSPETRAIKTRTCRFCMHAQLKKTEGEDVALGYCPLDLYSGDAGRVERALRELWDVWVGSGGAVNNLRVFVQGKMVKPSADPASLAPLTAQLLPPTSTTSPDSEPPAATRPPDTLRDAFIATLLPLLLDTPVLRTLSTLQRTLDALDIEGLAALWARVHPAHALGTGPGPGAADPDIAAWARFVDEHIDRLAQAAEDAKGAGEGEGQGENGSEVPATEDELRYRVAAYLLGASFKDCSLILRMRPHAQGTVTVIDLDVKSADRLGKWAALDREIVDAYRGVSNARRCVDAHYGAVPLP
notes: full-length cDNA in pET28a(+), E. coli BL21(DE3), Ni-NTA
As for B1, the Michaelis constant (Km) is given as 31.42 µM.

What is called Km is the concentration of substrate that gives half-maximal velocity.
